Measurements taken from the DeepSol protein solubility set.

Assay: soluble on expression in E. coli; label from the status in PepcDB or PDB records
With “MNNPEESAVTDLRKFTNLVLNGLVDEEATAAALIRYQFQQRTIKDVVRRGSEDPELKAQICDLLNHLVIYLNEEIVETSSKACPDGMDDRHFVQLEKRMHLMFEVYLAMNVVPDYLIPDLTKHVDASREAVKYSYSLCKDYYRWKELPLTLKEFFLDEKEEVKAVVDEPEPTMFARDDGVVSSLAHEKAQSDEDGKKKQFVAKTEKVLNNYRAKNPDYRTMRELINAKTKFRLEGIYCDSLIDDFISVWDMAIDIEPVKTEDKFAFTSLLKKVFLMMVDKRRNDFASKILDKYNNDASGVLPCLDNFVENFQTGLTAAINNLPLDANVLSNNMELFEKAKDPIIWYLLISPAYTVQQILLICVDNKGYVPLVSRIFRAIPTLFERSVNLTPMHFEGFKTQKLLITILHRVFIIGRTTWTSASQWENAAMMTMSFAKERKRKEGQPEKVEDKALLDSFSLVNFALNELFKDYRKPLKAVEIFVKMLQRLLANNNNARMLTNYQFSSSFFDDGNNYLPTSIIMLLMFDLLVEYDGQSNEVCDGARDILKSVSGRLNNDNIIFDTDTCRHLIDEKLNYAPWWIKYSICSWFSSSLQNPKKQVPSGVYKTIAEQHLDEFEQIKPEEVSTVSDCYFRSLFELGLFDVDLAIELLQYGHVAKFESSVVEKIALALVDSYGKKMSKRSGGLDIGKLIISMLQNSSYLESVKKIEHILVLFMAARIAKEKQLSAARVRTDDTIQTAYDEVISLNQVSDQLMDIFCETTKAHVDKEVMEVEQMRREVEVLLFSTPGTTPNQFKAMVEKENREQSLALQLSMIYLNCSYFCRLYQQVPIKLQQLMNSTLEKQFDSQKFLAKKVMDDVLTEKRKTEVVYAFVDTPVEPTPNEDNIQPVKPAELFRPPVVENVSVESTTYNSNGGGYRQGRYQTGYQGKNRRSNFEQPTSSRGSGRSDRTYAYKGNRFQPVNDSHVFAPRERENVYQNSSHDRDIPRNDYSEYDQEKLYLDDKQPRFHSENRNSNDVRRYSESKDSKYDNKNWNNRSSRWPSESEYSQEDSENRHLDQTIQSVRKFSYRENQQKHNRPGTSSASPPKNQEWKQHQQQKKSFGGGFGENGNKFNGNSRKQPERKPRYTSSNFYEQDEDSLQLLKPDRNELAQAMGLNDPPNPPKPRRSEWTRR” the “soluble on expression in E. coli” value was “not soluble”. In the case of “MSLKPVKPPRINGRVPVLSAQEAVNYIPDEATLCVLGAGGGILEATTLITALADKYKQTQTPRNLSIISPTGLGDRADRGISPLAQEGLVKWALCGHWGQSPRISELAEQNKIIAYNYPQGVLTQTLRAAAAHQPGIISDIGIGTFVDPRQQGGKLNEVTKEDLIKLVEFDNKEYLYYKAIAPDIAFIRATTCDSEGYATFEDEVMYLDALVIAQAVHNNGGIVMMQVQKMVKKATLHPKSVRIPGYLVDIVVVDPDQTQLYGGAPVNRFISGDFTLDDSTKLSLPLNQRKLVARRALFEMRKGAVGNVGVGIADGIGLVAREEGCADDFILTVETGPIGGITSQGIAFGANVNTRAILDMTSQFDFYHGGGLDVCYLSFAEVDQHGNVGVHKFNGKIMGTGGFIDISATSKKIIFCGTLTAGSLKTEITDGKLNIVQEGRVKKFIRELPEITFSGKIALERGLDVRYITERAVFTLKEDGLHLIEIAPGVDLQKDILDKMDFTPVISPELKLMDERLFIDAAMGFVLPEAAHEGGSHHHHHH”, the “soluble on expression in E. coli” value is reported as “soluble”. In the case of “MNVGILGIGRYVPEKVVTNHDLEKIMDTSDEWIRTRTGIAERRIADDTIDTSYMAVEASKKALEDAGISGEDIDLILVATVTPDRAFPAVACVIQEAIGAKHAAAMDLSAACAGFMYGMITAQQFIQTGTYKNVLVVGSDKLSKIVDWNDRNTAVLFGDGAGAIVMGAVSEGKGVLSFELGADGSGGKHLYQDEYVMMNGREVFKFAVRQLGDSCLRVLDKAGLTKEDVDFLVPHQANIRIMESARERLNLPQEKMSMTIEKFGNTSASSIPIAMVEELQNGRIQDGDLIILVGFGGGLTWGAVALRWGK”, the “soluble on expression in E. coli” value is reported as “not soluble”. For “MAHHHHHHMPPLRGAGRGRNKTGTVPTARTNGGFKAKGSVKPRTFDEYYGEIYGARWHTLRTAMMEAPRKVALWNRFSQVPFEEATRGLSRVEPNSLIQAFQPTQTANSTEAVSTADRGINDDDEAKLQGKALAAAADDLLHRNGVIDKPPIDAFGIKAYYLLDYASAHVVEQLQVGAFDTVLDMCAAPGGKSIAVAQFLSPDGALTCNEARADRCARLRRNLQEHVPVNYVPWRTTQRDAQTWYDPGAFSRVLVDAPCSSERHLLQQSGGSPLSLREWSEETTVQLAALQRMLLQRAIETCRVGGRIVYSTCSISPLENDGVVGEVLQRTRCEVKVIKTSPAAAAAAPVALPKTATDAGESDASGAEACAPHTPTVLGEATAYGRLLLPDTCHGWGPMFLCVLEKTAEHKDVSSSSEDDDE”, the “soluble on expression in E. coli” value was “not soluble”. With “AHHHHHHGSKLEIRDLSVGYDKPVLERITMTIEKGNVVNFHGPNGIGKTTLLKTISTYLKPLKGEIIYNGVPITKVKGKIFFLPEEIIVPRKISVEDYLKAVASLYGVKVNKNEIMDALESVEVLDLKKKLGELSQGTIRRVQLASTLLVNAEIYVLDDPVVAIDEDSKHKVLKSILEILKEKGIVIISSREELSYCDVNENLHKYSTKIDKKD” the “soluble on expression in E. coli” value was “soluble”. For “MSEDLNAGPKVNREFKNSVFTLLFNEVEAIRDIAGAVGAMLGKEINPDTPIKKTTLQNALLGGKLNDLSFVLDDKLIVLIEHQSTINKNMPLRMLHYISEIYNRLYDKKDLYKREKISIPKPVFIVLYNGEEDIKDFEEYLLSDLFKDFDISKEPPCLELRVQVRNINKGHSAEIVKQSPLLRDYVAFVEEVREANREEGASPELAMEKAVENCIKKGILTIFLTRHKEEVIKMLVAEWDYELDLEVAKEEAHEKGLSQGRDEERRKNIKDLYRIGVGIETIAKAFDLSERQVKDILGL”, the “soluble on expression in E. coli” value was “not soluble”. With “PRTRECDYCGTDIEPGTGTMFVHKDGATTHFCSSKCENNADLGREARNLEWTDTARGEAGEAEDEA” the “soluble on expression in E. coli” value was “soluble”. With “MDCWISTDYQSRTGNMAYPCTNRKTADSYYLNRSYQLDRIAVLLFLRQGTNAAMAGYWSSKILATSESNIYMNIILNMGEYSKSQ” the “soluble on expression in E. coli” value was “not soluble”. With “MGSDKIHHHHHHMHISLGPLLYCWQKQQVTDFYQQVAASQIPLVYLGEAVCSRRREFKWGDYLELAQMLKQAGKEVVISTLALIEAPSEYTELKRQVDNGEFMVEANDMAAVYLANEHKLPFVCGASINNYNRASLDILQRFGMQRFVMPVELSKAWLSQVIQQKPSFEVEVLGHGYLPLAHSARCFTARHKQLTKDHCETVCREYSKGLVAQTQEQQPLLRLNGIQTQSASCLDLRSEITTMAKMGVDVFRVSPSSLDCIATANALVDAINTPENAQHFAISSDANLERTQCNGYWFGEAGLAVHANP” the “soluble on expression in E. coli” value was “not soluble”. For “MGSDKIHHHHHHMVKYSGVCILFGAGGGGENALSLLKLEGCNISAIVDNDLKKHNTFLDDTPIYAPEKLNCDLIFDKILIASGYSKSILAQLGQYNISQERIIVLPQYYLKPNRFSDQVLYSLAWDFIFSFSELMNKLNIRYWLDYGTLLGLVRDNDLISWDSDLDFCILDENKGYLINSFSVISEHISSTIGCDVKIELIKGAECEHSRVFISCNRDNVILDIDVFIKFNFSNFVCLEVMDRVERYNAEHYVAVDFLNVKGISLPVPNKYDQYLTRVYGSWCVANKEWTLYS”, the “soluble on expression in E. coli” value was “not soluble”. In the case of “MSTAETAVAPVDYRTDPSQYKHWKLSFNGPVATLGIDIAEDGGIRDGYKLKLNSYDLGVDIELHDAIQRIRFEHPEVRTVVLTSLKDRVFCSGANIFMLGLSTHAWKVNFCKFTNETRNGLEDSSRHSGLKFLAAVNGACAGGGYELALACDEIYLVDDRSSSVSLPEVPLLGVLPGTGGLTRVTDKRKVRHDRADIFCTVVEGVRGERAKAWRLVDEVVKPNQFDQAIQARALELAAQSDRPAHAQGVPLTRIERTDREDGLTYKTLDVTIDRAKRIATFTAKAPQTEPPASIDAIVAAGANWWPLKFAREFDDAILSMRTNELAVGTWVFRTEGDARHLLAADASLMQHKDHWFVRETIGLLRRTLARIDVSSRSLFALIEPGSCFAGTFAELAFAADRTYMAALPANEDEEPAITLSEVNFGLYPMVTHQSRLARRFYEETEPLDAVRSRIGQAIKPVEAERLGLVTASPDDIDWADEIRIALEERAAMSPDALTGLEANLRFNGPETMETRIFGRLTAWQNWIFNRPNAVGEKGALKVYGKGSKAQFDVSRV”, the “soluble on expression in E. coli” value is reported as “soluble”. With “MGSDKIHHHHHHMKRSKYQLGRIGRLTIDRIVSIGAYLDGGDTDILLPNRYLPSDAAPGMEVEVFVYHDNEGRLIATTMRPLVEVGQVALLHAVSVTDSGAYMEWGIHKDLFVPFREQTQLIREGGRYFVYAYIDHVSGKIVGSAKLSKHLGNIPPSYSPGDKVSALVYERIDPGYRMIVDHTHWGMIYSDTLPMPLAIGAQVKAFVIRLRDDGKIDLSLKPIGYDRIDSESERLLHMLQRRGGRLPIGDKSSPEEIMQHTGMSKKTFKMAVGMLYRRRLIRITPTAITLNETVSTPEA” the “soluble on expression in E. coli” value was “not soluble”. With “MSETIFGKILTGEIPSFKVYEDDYVYAFLDISQVTKGHTLLIPKKASANIFETDEETMKHIGAALPKVANAIKRAFNPDGLNIIQNNGEFADQSVFHIHFHLIPRYENDIDGFGYKWETHEDILDNDAKQQIAEQIQAQF” the “soluble on expression in E. coli” value was “not soluble”. For “MSLAPIRLALIEGLSGPFANAGEAVDRNLRIAIEGVNARGGVRLPDGRHPLALVRFDSKNMVDESLLQLQAASDAGIRFVLQGNSSAAAAALSASIARHNDRAPDARMLFLNYAAVDPALTNEACSFWHFRFDASADMRMHALTEVIRADPSVKQVYLIGQDYTFGRQVAQLARRQLGEKRPDIAIAGEVLHPIGKVKDFAPYVARIAASGADAVITGNWGNDLTLLVKAARDAGLKARFFTFYGNSLGAPGAMGEAGVGRVVAVAEWHPNLGGTGSDAFYKAFRARYPAPVDDYPLLRDQMMIDLLATAIERAGTTEAGAVARALEGASLDTGFHRLTLRAEDHQAIQPLVVMQMARAGTPGAPFDIEGSGYGFRTLKVIPPAQTALPTTCRMARYEGHHHHHH”, the “soluble on expression in E. coli” value was “soluble”. With “MAHHHHHHMGNDEIFEDLFISDTEPEELYEELGPIGVGNYGSVIKARNRQTQAIAAIKLVLLVDKDERDFVQKEISILKKCVHPNIVRYYGAHKSLSKLWIVMEYCEGGSVDMVYKVLRHPLPENLIAYVCRQVLLGLQYLHANRKIHRDIKGGNILLTRDGDVKLADFGVSTELSHSLSRRNTFVGTLLWMSPEAILELDYDEKADLWSLGITLIEMAEGAPPYIDTHPARALFMIPKVDPPTLHDKDRWSPQMALFLKRLLIKDYRLRPTATAMLNDPFVAPEKIGTKEQMKAVIDEVLAKKEAMSPQRLHGETNSSATFVERTSTDTDGEDGVTNDTCTSGRAPTGAKVPANTSPVAMEAIDITGAHLFFHDGTLLPLPMLSTHDIGFDELGLGREGIGPFAKPVPDAESLLVPPEQRSTALHGSGGLAYTMHVTQTLKSMLYYHKQLPFFREVTDTEAIKSKELQLKYGSILKSIYRL” the “soluble on expression in E. coli” value was “soluble”. With “GPGSMRGSDAMATHASRWRPPQNPAAVRKYSNETAAPQPPAKIIMEDHSLAEVFRRSAAFQRILAYVQGCSEAVESTPNHQRLSATVDDCDDTVRYLVTDYLPRLHDIVTAIPLEDMAQQRFGNRAKRVFHARLEETVVADMEKLVRTFPTSAGRSEEAITDMATEVAAYVMDSFGNATRLDYGSGHELHFFIVIMICLEEHGDGGGSLKDEPAVLVPLEVPPPPPVPPMERAEVRKRRQDYIFYIFHEYMRLVRRLQKRYSLEPAGSHGVWGLDDYHHIPYIFGGAQLINAEVQPVKPAAGQEAMLVLPKHICDRAKVEMLKDSYLYFSMIAWILENKTGPFHEHSNMLYNISGVEHWSKIYSGMVKMFAAEVLAKYNVSQHLLFGRHLPWNTKTM” the “soluble on expression in E. coli” value was “soluble”. In the case of “MQEIIFIDGGSLPTPEGFTREWVKAAAESRTEDQKLFSLVSDAFQRKIDAGVHVPTYPQFRDMIGQFLDIIRDEKNCYEPYVLKEENAKILELEIIDEVAKQYRERTGKTLEVRVCVAGPTDLYLQAFGATAFSDAYHIMALNIENFIKQAFKAAKNFKIKVIALDEPSLGMNDKIQFSDLDIVSALTLASTYARKQGADVEIHLHSPLKYKLICETPINVMGFEYAATPSYIDLMDKKILEDSNTYIRLGVSRTDISSLIGMVNETYGVNAWKEKEYMQKIVTELETPDIIQKRLEKACSILGDRIKYASPDCGLAFWPDQELAFRLLENTAKGINAFNAEMKDLLEHHHHHH”, the “soluble on expression in E. coli” value is reported as “not soluble”.
